T1: FcγRIIb extracellular domain with C-terminal His tag (human, UniProt P31994 43-217)
T1 construct: extracellular domain; also called FcgRIIb; 2b
T1 sequence (looked up): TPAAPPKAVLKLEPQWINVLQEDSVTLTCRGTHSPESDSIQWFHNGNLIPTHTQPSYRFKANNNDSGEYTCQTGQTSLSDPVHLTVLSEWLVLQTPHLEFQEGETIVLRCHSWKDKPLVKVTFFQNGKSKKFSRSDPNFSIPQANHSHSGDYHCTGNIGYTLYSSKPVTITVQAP

T2: FcγRIIa R (FcγRIIa, allotype with Arg at position 131), extracellular domain with C-terminal His tag (human, UniProt P12318 34-217)
T2 construct: extracellular domain; also called FcγRIIa R type; 2aR
T2 sequence (looked up): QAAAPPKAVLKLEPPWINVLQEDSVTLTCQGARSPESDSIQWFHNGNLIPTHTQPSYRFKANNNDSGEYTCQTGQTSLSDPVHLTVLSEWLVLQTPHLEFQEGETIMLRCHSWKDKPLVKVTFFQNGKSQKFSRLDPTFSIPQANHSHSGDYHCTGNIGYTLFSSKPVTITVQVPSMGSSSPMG

B1: GpH7-A5/GpH7-B3 variant P331_06M/GpL16-k0 (antibody, human IgG1, kappa)
heavy 1: not shown
heavy 2: not shown
light: DIVMTQSPLSLPVTPGEPASISCQASESLVHSNRNTYLHWYLQKPGQSPQLLIYKVSNRFSGVPDRFSGSGSGTDFTLKISRVEAEDVGVYYCSQNTHVPPTFGQGTKVEIERTVAAPSVFIFPPSDEQLKSGTASVVCLLNNFYPREAKVQWKVDNALQSGNSQESVTEQDSKDSTYSLSSTLTLSKADYEKHKVYACEVTHQGLSSPVTKSFNRGEC
notes: also called He Ab P331_06M
B2: GpH7-A5/GpH7-B3 variant S239_10E/GpL16-k0 (antibody, human IgG1, kappa)
heavy 1: not shown
heavy 2: not shown
light: B1 light
notes: also called He Ab S239_10E
B3: GpH7-A5/GpH7-B3 variant S239_05P/GpL16-k0 (antibody, human IgG1, kappa)
heavy 1: not shown
heavy 2: not shown
light: B1 light
notes: also called He Ab S239_05P
B4: GpH7-A5/GpH7-B3 variant Y296_20W/GpL16-k0 (antibody, human IgG1, kappa)
heavy 1: not shown
heavy 2: not shown
light: B1 light
notes: also called He Ab Y296_20W
B5: GpH7-A5/GpH7-B3 variant S337_18N/GpL16-k0 (antibody, human IgG1, kappa)
heavy 1: not shown
heavy 2: not shown
light: B1 light
notes: also called He Ab S337_18N
B6: GpH7-A5/GpH7-B3 variant S298_06M/GpL16-k0 (antibody, human IgG1, kappa)
heavy 1: not shown
heavy 2: not shown
light: B1 light
notes: also called He Ab S298_06M
B7: GpH7-A5/GpH7-B3 variant P331_15Y/GpL16-k0 (antibody, human IgG1, kappa)
heavy 1: not shown
heavy 2: not shown
light: B1 light
notes: also called He Ab P331_15Y
B8: GpH7-A5/GpH7-B3 variant T335_07I/GpL16-k0 (antibody, human IgG1, kappa)
heavy 1: not shown
heavy 2: not shown
light: B1 light
notes: also called He Ab T335_07I
B9: GpH7-A5/GpH7-B3 variant S267_19Q/GpL16-k0 (antibody, human IgG1, kappa)
heavy 1: not shown
heavy 2: not shown
light: B1 light
notes: also called He Ab S267_19Q
B10: GpH7-B3 variant S337_02A/GpL16-k0 (antibody, human IgG1, kappa)
heavy: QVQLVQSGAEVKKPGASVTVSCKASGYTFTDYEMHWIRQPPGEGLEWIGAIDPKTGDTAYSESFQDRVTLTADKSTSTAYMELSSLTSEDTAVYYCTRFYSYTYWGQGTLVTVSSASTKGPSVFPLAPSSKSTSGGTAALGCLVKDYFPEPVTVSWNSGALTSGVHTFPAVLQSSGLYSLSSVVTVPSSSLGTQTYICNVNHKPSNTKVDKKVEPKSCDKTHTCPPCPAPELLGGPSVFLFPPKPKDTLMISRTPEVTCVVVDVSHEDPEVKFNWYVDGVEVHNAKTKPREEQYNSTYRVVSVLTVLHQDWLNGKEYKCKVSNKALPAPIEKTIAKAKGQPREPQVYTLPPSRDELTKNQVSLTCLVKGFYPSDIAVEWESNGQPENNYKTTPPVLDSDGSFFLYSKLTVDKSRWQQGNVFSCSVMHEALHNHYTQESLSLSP
light: B1 light
notes: also called Ho Ab
B11: GpH7-B3 variant P331_20W/GpL16-k0 (antibody, human IgG1, kappa)
heavy: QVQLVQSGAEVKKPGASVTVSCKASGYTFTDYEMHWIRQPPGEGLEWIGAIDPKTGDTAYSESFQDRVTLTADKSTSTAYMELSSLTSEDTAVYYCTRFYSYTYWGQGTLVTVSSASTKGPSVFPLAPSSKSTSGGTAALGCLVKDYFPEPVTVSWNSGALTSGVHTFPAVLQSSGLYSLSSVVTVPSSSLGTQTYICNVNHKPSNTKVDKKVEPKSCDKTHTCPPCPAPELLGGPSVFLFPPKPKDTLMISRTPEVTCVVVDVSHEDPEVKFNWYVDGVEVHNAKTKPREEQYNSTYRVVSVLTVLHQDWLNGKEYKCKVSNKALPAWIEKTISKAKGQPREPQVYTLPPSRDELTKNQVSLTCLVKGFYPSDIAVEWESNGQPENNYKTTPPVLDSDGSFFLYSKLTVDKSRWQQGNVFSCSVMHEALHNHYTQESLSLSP
light: B1 light
notes: also called Ho Ab
B12: GpH7-B3 variant P331_18N/GpL16-k0 (antibody, human IgG1, kappa)
heavy: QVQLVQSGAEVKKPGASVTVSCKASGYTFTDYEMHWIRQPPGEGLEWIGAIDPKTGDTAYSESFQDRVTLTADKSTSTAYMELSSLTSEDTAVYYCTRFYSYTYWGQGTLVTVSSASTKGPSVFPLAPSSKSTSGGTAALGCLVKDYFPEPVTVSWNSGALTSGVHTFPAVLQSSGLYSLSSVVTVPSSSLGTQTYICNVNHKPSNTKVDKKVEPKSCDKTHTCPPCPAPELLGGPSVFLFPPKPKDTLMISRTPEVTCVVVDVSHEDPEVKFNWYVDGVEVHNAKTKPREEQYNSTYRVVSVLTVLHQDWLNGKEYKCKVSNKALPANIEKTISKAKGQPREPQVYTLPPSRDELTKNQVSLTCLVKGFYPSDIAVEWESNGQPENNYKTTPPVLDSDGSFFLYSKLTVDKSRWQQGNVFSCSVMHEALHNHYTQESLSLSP
light: B1 light
notes: also called Ho Ab
B13: GpH7-B3 variant Q295_06M/GpL16-k0 (antibody, human IgG1, kappa)
heavy: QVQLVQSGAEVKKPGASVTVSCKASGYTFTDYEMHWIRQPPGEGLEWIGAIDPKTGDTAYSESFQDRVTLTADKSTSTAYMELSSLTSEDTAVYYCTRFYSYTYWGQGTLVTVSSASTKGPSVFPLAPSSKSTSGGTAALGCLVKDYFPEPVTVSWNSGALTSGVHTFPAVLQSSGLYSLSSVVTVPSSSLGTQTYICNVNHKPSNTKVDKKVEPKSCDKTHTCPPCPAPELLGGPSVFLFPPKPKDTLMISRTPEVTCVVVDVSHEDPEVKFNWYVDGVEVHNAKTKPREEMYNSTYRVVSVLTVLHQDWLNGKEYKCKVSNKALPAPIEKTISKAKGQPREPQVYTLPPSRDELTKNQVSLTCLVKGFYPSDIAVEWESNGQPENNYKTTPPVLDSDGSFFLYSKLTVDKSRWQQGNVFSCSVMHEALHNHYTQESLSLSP
light: B1 light
notes: also called Ho Ab
B14: GpH7-B3 variant P331_15Y/GpL16-k0 (antibody, human IgG1, kappa)
heavy: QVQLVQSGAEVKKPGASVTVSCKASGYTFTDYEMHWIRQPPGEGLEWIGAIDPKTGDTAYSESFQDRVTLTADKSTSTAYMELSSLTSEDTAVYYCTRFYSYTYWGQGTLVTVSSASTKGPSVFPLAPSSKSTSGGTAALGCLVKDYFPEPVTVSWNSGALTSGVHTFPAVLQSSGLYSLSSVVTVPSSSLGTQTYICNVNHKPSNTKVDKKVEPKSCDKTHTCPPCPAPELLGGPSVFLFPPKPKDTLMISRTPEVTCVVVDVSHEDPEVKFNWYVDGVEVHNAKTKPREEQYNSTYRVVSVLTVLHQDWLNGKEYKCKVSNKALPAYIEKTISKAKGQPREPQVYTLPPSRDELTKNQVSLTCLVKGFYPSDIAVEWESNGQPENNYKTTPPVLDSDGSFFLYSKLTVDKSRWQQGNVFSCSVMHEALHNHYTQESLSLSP
light: B1 light
notes: also called Ho Ab
B15: GpH7-B3 variant P331_14T/GpL16-k0 (antibody, human IgG1, kappa)
heavy: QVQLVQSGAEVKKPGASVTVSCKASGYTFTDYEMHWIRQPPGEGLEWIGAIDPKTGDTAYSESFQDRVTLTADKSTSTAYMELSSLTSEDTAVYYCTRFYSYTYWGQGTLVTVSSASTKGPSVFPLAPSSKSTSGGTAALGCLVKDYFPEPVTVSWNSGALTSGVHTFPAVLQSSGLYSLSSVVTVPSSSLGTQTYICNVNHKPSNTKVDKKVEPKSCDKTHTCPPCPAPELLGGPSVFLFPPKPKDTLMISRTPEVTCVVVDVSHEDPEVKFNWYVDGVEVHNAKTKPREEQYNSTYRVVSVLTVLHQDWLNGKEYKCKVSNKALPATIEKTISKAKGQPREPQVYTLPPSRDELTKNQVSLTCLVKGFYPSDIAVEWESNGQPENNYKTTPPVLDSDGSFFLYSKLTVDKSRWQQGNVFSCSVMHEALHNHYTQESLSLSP
light: B1 light
notes: also called Ho Ab
B16: GpH7-B3 variant Q295_10E/GpL16-k0 (antibody, human IgG1, kappa)
heavy: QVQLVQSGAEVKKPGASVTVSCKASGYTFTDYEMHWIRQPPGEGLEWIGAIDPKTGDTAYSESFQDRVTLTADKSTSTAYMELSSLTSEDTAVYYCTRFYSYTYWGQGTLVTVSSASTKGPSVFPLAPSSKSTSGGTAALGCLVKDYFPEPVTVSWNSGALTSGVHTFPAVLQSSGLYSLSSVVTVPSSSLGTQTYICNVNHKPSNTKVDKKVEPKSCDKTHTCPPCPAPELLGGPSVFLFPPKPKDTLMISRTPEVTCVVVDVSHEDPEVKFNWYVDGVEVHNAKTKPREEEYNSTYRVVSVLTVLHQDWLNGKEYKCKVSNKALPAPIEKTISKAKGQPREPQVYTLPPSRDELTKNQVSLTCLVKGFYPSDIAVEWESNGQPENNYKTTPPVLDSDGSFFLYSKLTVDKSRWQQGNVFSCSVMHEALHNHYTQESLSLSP
light: B1 light
notes: also called Ho Ab
B17: GpH7-B3 variant S239_06M/GpL16-k0 (antibody, human IgG1, kappa)
heavy: not shown
light: B1 light
notes: also called Ho Ab
B18: GpH7-B3 variant P331_06M/GpL16-k0 (antibody, human IgG1, kappa)
heavy: not shown
light: B1 light
notes: also called Ho Ab
B19: GpH7-B3 variant S239_07I/GpL16-k0 (antibody, human IgG1, kappa)
heavy: not shown
light: B1 light
notes: also called Ho Ab
B20: GpH7-B3 variant P331_16H/GpL16-k0 (antibody, human IgG1, kappa)
heavy: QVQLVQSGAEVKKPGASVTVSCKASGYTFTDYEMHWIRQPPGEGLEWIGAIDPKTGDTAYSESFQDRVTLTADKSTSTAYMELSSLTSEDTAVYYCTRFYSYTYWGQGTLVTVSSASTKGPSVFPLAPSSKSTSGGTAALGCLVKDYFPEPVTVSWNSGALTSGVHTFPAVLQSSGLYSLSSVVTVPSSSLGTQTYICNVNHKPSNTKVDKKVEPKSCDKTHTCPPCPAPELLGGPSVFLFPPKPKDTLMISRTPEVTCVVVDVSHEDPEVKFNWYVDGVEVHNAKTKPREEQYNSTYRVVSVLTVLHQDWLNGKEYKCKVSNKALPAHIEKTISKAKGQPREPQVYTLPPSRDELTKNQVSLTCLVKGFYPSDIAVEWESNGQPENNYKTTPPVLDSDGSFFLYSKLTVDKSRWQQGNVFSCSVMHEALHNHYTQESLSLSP
light: B1 light
notes: also called Ho Ab
B21: GpH7-B3 variant P331_08L/GpL16-k0 (antibody, human IgG1, kappa)
heavy: not shown
light: B1 light
notes: also called Ho Ab
B22: GpH7-B3 variant P331_07I/GpL16-k0 (antibody, human IgG1, kappa)
heavy: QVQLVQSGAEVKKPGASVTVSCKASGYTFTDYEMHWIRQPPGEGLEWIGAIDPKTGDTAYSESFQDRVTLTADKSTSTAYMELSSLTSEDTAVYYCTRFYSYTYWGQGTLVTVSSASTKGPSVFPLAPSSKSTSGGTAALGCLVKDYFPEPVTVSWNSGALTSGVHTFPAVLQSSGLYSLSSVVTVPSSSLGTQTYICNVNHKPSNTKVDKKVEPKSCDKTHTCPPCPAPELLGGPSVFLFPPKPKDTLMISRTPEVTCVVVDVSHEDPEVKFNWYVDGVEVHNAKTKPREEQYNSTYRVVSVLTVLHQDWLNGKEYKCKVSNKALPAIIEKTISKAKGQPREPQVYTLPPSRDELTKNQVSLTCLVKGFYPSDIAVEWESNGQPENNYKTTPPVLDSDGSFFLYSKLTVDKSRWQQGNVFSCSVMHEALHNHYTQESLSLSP
light: B1 light
notes: also called Ho Ab
B23: GpH7-B3 variant P331_09D/GpL16-k0 (antibody, human IgG1, kappa)
heavy: not shown
light: B1 light
notes: also called Ho Ab
B24: GpH7-B3 variant P331_13S/GpL16-k0 (antibody, human IgG1, kappa)
heavy: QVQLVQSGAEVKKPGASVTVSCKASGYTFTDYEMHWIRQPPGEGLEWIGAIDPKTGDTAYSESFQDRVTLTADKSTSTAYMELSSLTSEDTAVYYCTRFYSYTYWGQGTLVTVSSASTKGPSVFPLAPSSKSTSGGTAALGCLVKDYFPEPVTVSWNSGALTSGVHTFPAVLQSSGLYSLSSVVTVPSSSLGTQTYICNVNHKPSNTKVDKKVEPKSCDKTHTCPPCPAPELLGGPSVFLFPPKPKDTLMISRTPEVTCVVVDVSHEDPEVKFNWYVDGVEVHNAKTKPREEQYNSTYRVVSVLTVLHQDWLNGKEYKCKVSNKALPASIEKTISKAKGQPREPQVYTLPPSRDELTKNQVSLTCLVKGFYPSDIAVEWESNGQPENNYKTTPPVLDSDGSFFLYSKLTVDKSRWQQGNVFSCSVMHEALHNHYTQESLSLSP
light: B1 light
notes: also called Ho Ab
B25: GpH7-B3 variant P331_10E/GpL16-k0 (antibody, human IgG1, kappa)
heavy: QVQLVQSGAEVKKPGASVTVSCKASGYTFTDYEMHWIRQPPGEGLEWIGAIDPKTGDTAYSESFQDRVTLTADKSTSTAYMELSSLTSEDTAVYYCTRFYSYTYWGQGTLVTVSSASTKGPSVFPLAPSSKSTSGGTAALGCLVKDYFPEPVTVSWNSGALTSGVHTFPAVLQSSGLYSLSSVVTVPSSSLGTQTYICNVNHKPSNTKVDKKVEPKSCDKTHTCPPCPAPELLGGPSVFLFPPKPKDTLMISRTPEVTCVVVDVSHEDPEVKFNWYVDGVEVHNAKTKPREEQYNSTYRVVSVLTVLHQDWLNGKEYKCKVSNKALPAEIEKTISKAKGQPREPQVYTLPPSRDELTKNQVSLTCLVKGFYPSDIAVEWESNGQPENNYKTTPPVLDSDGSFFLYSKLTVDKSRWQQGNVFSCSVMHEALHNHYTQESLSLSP
light: B1 light
notes: also called Ho Ab

The target in the first assay is T1, FcγRIIb extracellular domain with …. The assay is described as follows: SPR (Biacore), relative binding. In general terms: SPR reads the build-up and loss of mass on a sensor chip optically.
On to B1, for which the He/Con_2b was 102 % of HeCon Ab GpH7-A5/GpH7-B3/GpL16-k0.

As to B2, the He/Con_2b was 181 % of HeCon Ab GpH7-A5/GpH7-B3/GpL16-k0.

As to B3, the He/Con_2b is 102 % of HeCon Ab GpH7-A5/GpH7-B3/GpL16-k0.

For B4, the He/Con_2b was 103 % of HeCon Ab GpH7-A5/GpH7-B3/GpL16-k0.

On to B5, for which the He/Con_2b was 103 % of HeCon Ab GpH7-A5/GpH7-B3/GpL16-k0.

With B6, the He/Con_2b is 102 % of HeCon Ab GpH7-A5/GpH7-B3/GpL16-k0.

As to B7, the He/Con_2b was 114 % of HeCon Ab GpH7-A5/GpH7-B3/GpL16-k0.

Consider B8, for which the He/Con_2b is 106 % of HeCon Ab GpH7-A5/GpH7-B3/GpL16-k0.

Turning to B9, the He/Con_2b is 218 % of HeCon Ab GpH7-A5/GpH7-B3/GpL16-k0.

Another assay has as its target T2, FcγRIIa R (FcγRIIa, allotype with Arg …). The assay can be described thus: SPR (Biacore), antibody captured on antigen peptide chip, FcγR as analyte; relative binding. As to the method:
Analysis of interaction between objective antibody and the FcγR was carried out using Biacore T100 (GE Healthcare). HBS-EP+ (GE Healthcare) was used as the running buffer, and the measurement temperature was set to 25° C. Chips produced by immobilizing the antigen peptide by the amine coupling method to a Series S Sencor Chip CM5 (GE Healthcare), or alternatively, chips produced by allowing preliminarily biotinylated antigen peptides to interact with and immobilize onto a Series S Sensor Chip SA (certified) (GE Healthcare) were used. Antibodies of interest were captured onto an antigen peptide-immobilized chip, and allowed to interact to each FcγR diluted with running buffer. To regenerate and repeatedly use the chip, the antibodies captured on the chip were washed off by reacting 10 mM glycine-HCl, pH 1.5.
Take B10: the Ho/Con_2aR is 102 % of GpH7-B3/GpL16-k0 (=100).

For the molecule B11, the Ho/Con_2aR was 102 % of GpH7-B3/GpL16-k0 (=100).

B12: the Ho/Con_2aR was 76.9 % of GpH7-B3/GpL16-k0 (=100).

As for B13, the Ho/Con_2aR was 93.9 % of GpH7-B3/GpL16-k0 (=100).

As for B14, the Ho/Con_2aR is 105 % of GpH7-B3/GpL16-k0 (=100).

B15: the Ho/Con_2aR is 80.8 % of GpH7-B3/GpL16-k0 (=100).

As to B16, the Ho/Con_2aR was 99.2 % of GpH7-B3/GpL16-k0 (=100).

In the case of B17, the Ho/Con_2aR was 82.9 % of GpH7-B3/GpL16-k0 (=100).

B18: the Ho/Con_2aR was 79.8 % of GpH7-B3/GpL16-k0 (=100).

For B19, the Ho/Con_2aR was 85.3 % of GpH7-B3/GpL16-k0 (=100).

Regarding B20, the Ho/Con_2aR was 100 % of GpH7-B3/GpL16-k0 (=100).

For the molecule B21, the Ho/Con_2aR was 74.4 % of GpH7-B3/GpL16-k0 (=100).

On to B22, for which the Ho/Con_2aR was 67 % of GpH7-B3/GpL16-k0 (=100).

Consider B23, for which the Ho/Con_2aR was 88.8 % of GpH7-B3/GpL16-k0 (=100).

Regarding B24, the Ho/Con_2aR was 87.8 % of GpH7-B3/GpL16-k0 (=100).

Regarding B25, the Ho/Con_2aR was 94.6 % of GpH7-B3/GpL16-k0 (=100).
